This note sets out measurements from paper PMC10963267 (2023).

Residue numbers refer to the chain shown, from its start. Numbers in names are those of the source. Like-named read-outs stand apart in the source and are kept apart here.

Test [1] deals with T1, hen egg lysozyme (HEL), biotinylated (hen, UniProt P00698 19-147, biotin). Briefly: deep screening KDapp.
Test [2] addresses T2, HER2 extracellular domain (Homo sapiens, UniProt P04626). As to the kind of experiment: flow.
For test [3], the target named is T2, HER2 extracellular domain. Briefly: Octet. A general note: Biolayer interferometry detects binding as a change in optical thickness at a sensor tip.
Test [4] addresses T1, hen egg lysozyme (HEL), biotinylated. Briefly: BLI.
Test [5] deals with T3, human epidermal growth factor receptor 2 (HER2), biotinylated (human, UniProt P04626 23-652, biotin). As to the kind of experiment: BLI.
In test [6] the target is T3, human epidermal growth factor receptor ….
The target is the same in test [7]. As to the kind of experiment: SPR.
Test [8] has the same target. As to the kind of experiment: BLI. The source holds these as a separate data set.
Test [9] has the same target. As to the kind of experiment: SPR. The source holds these as a separate data set.

T1 sequence (P00698 19-147): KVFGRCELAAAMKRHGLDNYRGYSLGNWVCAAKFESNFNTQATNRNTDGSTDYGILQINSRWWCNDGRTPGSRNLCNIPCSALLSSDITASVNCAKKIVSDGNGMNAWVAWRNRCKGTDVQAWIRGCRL

B1: anti-HEL nanobody M5, ribosome-displayed on the flow cell (VHH)
VHH: QVQLQESGGGLVQAGGSLRLSCAASGSIFYYTDMGWYRQAPGKEREFVASIGYGGITYYADSVKGRFTISRDNAKNTVYLQMNSLKPEDTAVYYCAVQRSFESYGYWGHVYWGQGTQVTVSS
B1 gave a Kd in [1] of 106 nM.

B2: anti-HEL nanobody M6, ribosome-displayed on the flow cell (VHH)
VHH: B1 VHH with F29S, Y30R, Y31D, T32P, G52S, Y53G, G55T, I56T
Turning to B2, the Kd in test [1] was found to be 63.6 nM.
For the molecule HDVGQCDSSNCATWPEYFQH [HER20019], the “apparent Kd (screen)” value in [2] turned out to be 19.6 nM. The Kd in test [3] amounted to 0.79 nM.
Turning to HDVGYCSSHRCETWPEYFQH [HER20012], the “apparent Kd (screen)” value in test [2] was 74.2 nM. The molecule also returned a Kd in test [3] of 0.591 nM.
Taken in the same sequence, the figures for HDVGYCMSSNCAKWPEYFQH [HER20007] were 41.1 nM and 2.08 nM.
In turn, HDVAYCSSSRCLTWPEYFQH [HER20003] returned a Kd in [3] of 2.88 nM.

B3: anti-HEL nanobody M15, ribosome-displayed on the flow cell (VHH)
VHH: QVQLQESGGGLVQAGGSLRLSCAASGTISSQKLMGWYRQAPGKEREFVAAINDGATTNYADSVKGRFTISRDNAKNTVYLQMNSLKPEDTAVYYCAAYYDVRGYYWGTFGYWGQGTQVTVSS
B3 registered a Kd in [1] of 64.4 nM.

B4: anti-HEL nanobody C2 (VHH)
VHH: QVQLQESGGGLVQAGGSLRLSCAASGNISADASMGWYRQAPGKEREFVAAIARGATTYYADSVKGRFTISRDNAKNTVYLQMNSLKPEDTAVYYCAVDQYDVTKRYIGHIYWGQGTQVTVSS
Take B4: the results for the Kd in [4] and in [1] were 59.8 nM and 11900 nM, respectively.
Regarding HDVGQCDSSNCAAWPEYFQH [HER20017], in test [2], the “apparent Kd (screen)” value worked out at 1350 nM. The Kd in test [3] was 1.46 nM.
As to HDVGQCDSSNCETWPEYFQH [HER20024], the “apparent Kd (screen)” value in test [2] turned out to be 17.9 nM.
Regarding HDVAYCDTPTCAKWPEYFQH [HER20005], the Kd in [3] was 1.86 nM.
With HDVGYCDTESCEKWPEYFQH [HER20023], the “apparent Kd (screen)” value in [2] was found to be 31.6 nM. Besides, the Kd in test [3] was 0.578 nM.
Turning to HDVGYCSSSNCAKWPEYFQH [HER20002], in [2], the “apparent Kd (screen)” value amounted to 19.4 nM. The same molecule yielded a Kd in [3] of 1.65 nM.
Taken in the same sequence, the figures for HDVAYCDDPTCAYWPEYFQH [HER20014] were 65.9 nM and 0.996 nM.
Consider HDVGYCSESACQQWPEYFQH [HER20018], for which, in [2], the “apparent Kd (screen)” value was 24.4 nM. In test [3], this molecule registered a Kd of 2.26 nM.

B5: anti-HER2 Fab HER20010 (Fab, V domains shown)
VH: QVQLVQSGAEVKKPGESLKISCKGSGYSFTSYWIAWVRQMPGKGLEYMGLIYPGDSDTKYSPSFQGQVTISVDKSVSTAYLQWSSLKPSDSAVYFCARHDVAYCSSSRCLDWPEYFQHWGQGTLVTVSS
VL: QSVLTQPPSVSAAPGQKVTISCSGSSSNIGNNYVSWYQQLPGTAPKLLIYGHTNRPAGVPDRFSGSKSGTSASLAISGFRSEDEADYYCASWDYTLSGWVFGGGTKLTVL
B5: the Kd in [5] came out at 1.06 nM.

B6: anti-HER2 scFv G98A, ribosome-displayed on the flow cell (scFv, V domains shown)
VH: B5 VH with R108N, L110A, D111K
VL: B5 VL
Take B6: the Kd in test [6] was determined as 24 nM; in test [7], 320 nM.

B7: anti-HER2 Fab HER20007 (Fab, V domains shown)
VH: B5 VH with A102G, S105M, R108N, L110A, D111K
VL: B5 VL
Molecule B7 showed a Kd in test [5] of 2.08 nM.

B8: anti-HER2 Fab HER20008 (Fab, V domains shown)
VH: B5 VH with S105D, S107D, L110A, D111K
VL: B5 VL
B8 showed a Kd in test [5] of 2.68 nM.

B9: anti-HER2 Fab HER20015 (Fab, V domains shown)
VH: B5 VH with A102G, S105D, S106T, S107P, R108T, L110D, D111K
VL: B5 VL
B9: in test [5], the Kd stood at 0.2 nM.

B10: anti-HER2 Fab HER20006 (Fab, V domains shown)
VH: B5 VH with A102G, Y103W, S105T, R108N, L110A, D111K
VL: B5 VL
In turn, B10 gave a Kd in test [8] of 0.85 nM.

B11: anti-HER2 Fab G98A (Fab, V domains shown)
VH: B5 VH with R108N, L110A, D111K
VL: B5 VL
Molecule B11 had a Kd in test [9] of 320 nM.

B12: anti-HER2 Fab HER20011 (Fab, V domains shown)
VH: B5 VH with A102G, Y103L, R108N, L110A, D111K
VL: B5 VL
For B12, in test [5], the Kd was determined as 5.25 nM.

B13: anti-HER2 Fab HER20009 (Fab, V domains shown)
VH: B5 VH with D111E
VL: B5 VL
In [5], B13 showed a Kd of 1.04 nM.
On to HDTGYCDTPTCAKWPEYFQH [HER20021], for which the “apparent Kd (screen)” value in test [2] worked out at 17.7 nM. Also, the Kd in test [3] is 0.215 nM.
In turn, HDVGQCDSSNCAKWPEYFQH [HER20004] had a Kd in [3] of 3.44 nM.
Regarding HDVGYCDTPTCATWPEQFDH [HER20022], the “apparent Kd (screen)” value in [2] amounted to 14.8 nM. The molecule also came in with a Kd in [3] of 0.183 nM.
For HDVGYCDSSMCQMWPEYFQH [HER20026], the “apparent Kd (screen)” value in [2] is 4.78 nM. The molecule also displayed a Kd in test [3] of 0.465 nM.
Taken in the same sequence, the figures for HDVGYCDTPTCDKWPEYFQH [HER20015] were 31 nM and 0.2 nM.
Regarding HDVGYCSTSRCLTWPEYFQH [HER20013], the “apparent Kd (screen)” value in test [2] came to 10 nM.
On to HDVAYCDSDRCAKWPEYFQH [HER20008], for which the “apparent Kd (screen)” value in test [2] stood at 44.5 nM. In addition, in test [3], the Kd was 2.68 nM.
Regarding HDVAYCSSSRCLDWPEYFQH [HER20010], in [2], the “apparent Kd (screen)” value was 17.7 nM. The molecule further gave a Kd in test [3] of 1.06 nM.
With HDVGLCSSSNCAKWPEYFQH [HER20011], the “apparent Kd (screen)” value in test [2] amounted to 40.6 nM.
For HDVAYCSSSRCLEWPEYFQH [HER20009], in [2], the “apparent Kd (screen)” value is 11.2 nM. Moreover, the Kd in test [3] amounted to 1.04 nM.
Taken in the same sequence, the figures for HDVGPCDTSTCAKWPEYFQH [HER20016] were 106 nM and 1.41 nM.

B14: anti-HEL nanobody C1 (VHH)
VHH: QVQLQESGGGLVQAGGSLRLSCAASGSIFWAGYMGWYRQAPGKEREFVAAIDYGANTYYADSVKGRFTISRDNAKNTVYLQMNSLKPEDTAVYYCAVDRQPYYRRDNSHLYWGQGTQVTVSS
Turning to B14, the Kd turned out to be 67.4 nM in [4] and 11900 nM in [1].
For HDVGYCDTPTCNKWPEYFQH [HER20025], in [2], the “apparent Kd (screen)” value was 8.78 nM.
Turning to HDVGWCTSSNCAKWPEYFQH [HER20006], the “apparent Kd (screen)” value in test [2] was 151 nM. This molecule displayed a Kd in [3] of 0.85 nM.
In the case of HDVGYCDTPTCDKWPEYFTH [HER20020], in [2], the “apparent Kd (screen)” value is 14.3 nM. Moreover, the Kd in [3] came to 0.294 nM.
